Source: patent US20140302033A1 (UCB, published 2014)

Experiments:
Human Serum Albumin [1] = biological target: T1, Human Serum Albumin (human, UniProt P02768 25-609); test: kinetics table, analyte HSA, single concentration 50nM; HEK293 material; method not named in Example 4
T1 construct: also called HSA; HAS

Human Serum Albumin [2] = biological target: T1, Human Serum Albumin; test: kinetics table, analyte HSA, titration 50nM, 25nM, 12.5nM, 6.25nM; HEK293 material; method not named in Example 4
Human Serum Albumin [3] = biological target: T1, Human Serum Albumin; test: SPR BIAcore T200; Fab-Fv captured by anti-human F(ab')2, albumin as analyte; average of 3
Experimental: (§1) BIA (Biamolecular Interaction Analysis) was performed using a BIAcore T200 (GE Healthcare). Affinipure F(ab′)₂ Fragment goat anti-human IgG, F(ab′)₂ fragment specific (Jackson ImmunoResearch) was immobilised on a CM5 Sensor Chip via amine coupling chemistry to a capture level of ≈5000 response units (RUs). HBS-EP buffer (10 mM HEPES pH 7.4, 0.15 M NaCl, 3 mM EDTA, 0.05% Surfactant P20, GE Healthcare) was used as the running buffer with a flow rate of 10 μl/min. A 10 μL injection of Fab-Fv at 0.75 μg/mL was used for capture by the immobilised anti-human IgG-F(ab′)₂. Human Serum Albumin (HSA), Mouse Serum albumin (MSA) and Cynomolgus Serum Albumin (CSA) was titrated over the captured Fab-Fv at various concentrations (50 nM to 6.25 nM) at a flow rate of 30 μL/min. The surface was regenerated by 2×10 μL injection of 50 mM HCl, followed by a 5 μL injection of 5 mM NaOH at a flowrate of 10 μL/min. Background subtraction binding curves were analysed using the T200evaluation software (version 1.0) following standard procedures. Kinetic parameters were determined from the fitting algorithm.

Mouse Serum albumin = biological target: T2, Mouse Serum albumin (mouse, UniProt P07724 25-608); test: as above
T2 construct: also called MSA
Experimental: as §1

Cynomolgus Serum Albumin = biological target: T3, Cynomolgus Serum Albumin (cynomolgus, UniProt A2V9Z4 25-608); test: as above
T3 construct: also called CSA
Experimental: as §1

Row | Kd (Human Serum Albumin [1]) [nM] | koff (Human Serum Albumin [1]) [s⁻¹] | kon (Human Serum Albumin [1]) [M⁻¹ s⁻¹] | Kd (Human Serum Albumin [2]) [nM] | koff (Human Serum Albumin [2]) [s⁻¹] | kon (Human Serum Albumin [2]) [M⁻¹ s⁻¹] | Kd (Human Serum Albumin [3]) [nM] | koff (Human Serum Albumin [3]) [s⁻¹] | kon (Human Serum Albumin [3]) [M⁻¹ s⁻¹] | Kd (Mouse Serum albumin) [nM] | koff (Mouse Serum albumin) [s⁻¹] | kon (Mouse Serum albumin) [M⁻¹ s⁻¹] | Kd (Cynomolgus Serum Albumin) [nM] | koff (Cynomolgus Serum Albumin) [s⁻¹] | kon (Cynomolgus Serum Albumin) [M⁻¹ s⁻¹] | Binder
1 | 1.25 | 0.000199 | 160000 | 1.29 | 0.000222 | 172000 | – | – | – | – | – | – | – | – | – | FabA-dsscFv (CH1-dsscFv) (bispecific antibody) chain 1: EVQLVESGGGLVQPGGSLRLSCAASGFTFTNYGIHWIRQAPGKGLEWVASISPSGGLTYYRDSVKGRFTISRDDAKNSPYLQMNSLRAEDTAVYYCATGGEGIFDYWGQGTLVTVSSASTKGPSVFPLAPSSKSTSGGTAALGCLVKDYFPEPVTVSWNSGALTSGVHTFPAVLQSSGLYSLSSVVTVPSSSLGTQTYICNVNHKPSNTKVDKKVEPKSCSGGGGSGGGGTGGGGSEVQLLESGGGLVQPGGSLRLSCAVSGIDLSNYAINWVRQAPGKCLEWIGIIWASGTTFYATWAKGRFTISRDNSKNTVYLQMNSLRAEDTAVYYCARTVPGYSTAPYFDLWGQGTLVTVSSGGGGSGGGGSGGGGSGGGGSDIQMTQSPSSVSASVGDRVTITCQSSPSVWSNFLSWYQQKPGKAPKLLIYEASKLTSGVPSRFSGSGSGTDFTLTISSLQPEDFATYYCGGGYSSISDTTFGCGTKVEIKRT chain 2: DIQMTQSPSSLSASVGDRVTITCRATQSIYNALAWYQQKPGKAPKLLIYNANTLHTGVPSRFSASGSGTDSTLTISSLQPEDFATYYCQQYYDYPLTFGGGTKVEIKRTVAAPSVFIFPPSDEQLKSGTASVVCLLNNFYPREAKVQWKVDNALQSGNSQESVTEQDSKDSTYSLSSTLTLSKADYEKHKVYACEVTHQGLSSPVTKSFNRGEC
2 | 1.28 | 0.000211 | 165000 | 1.31 | 0.00024 | 183000 | – | – | – | – | – | – | – | – | – | FabA-dsscFv (CL-dsscFv) (bispecific antibody) chain 1: DIQMTQSPSSLSASVGDRVTITCRATQSIYNALAWYQQKPGKAPKLLIYNANTLHTGVPSRFSASGSGTDSTLTISSLQPEDFATYYCQQYYDYPLTFGGGTKVEIKRTVAAPSVFIFPPSDEQLKSGTASVVCLLNNFYPREAKVQWKVDNALQSGNSQESVTEQDSKDSTYSLSSTLTLSKADYEKHKVYACEVTHQGLSSPVTKSFNRGECSGGGGSGGGGSGGGGSEVQLLESGGGLVQPGGSLRLSCAVSGIDLSNYAINWVRQAPGKCLEWIGIIWASGTTFYATWAKGRFTISRDNSKNTVYLQMNSLRAEDTAVYYCARTVPGYSTAPYFDLWGQGTLVTVSSGGGGSGGGGSGGGGSGGGGSDIQMTQSPSSVSASVGDRVTITCQSSPSVWSNFLSWYQQKPGKAPKLLIYEASKLTSGVPSRFSGSGSGTDFTLTISSLQPEDFATYYCGGGYSSISDTTFGCGTKVEIKRT chain 2: EVQLVESGGGLVQPGGSLRLSCAASGFTFTNYGIHWIRQAPGKGLEWVASISPSGGLTYYRDSVKGRFTISRDDAKNSPYLQMNSLRAEDTAVYYCATGGEGIFDYWGQGTLVTVSSASTKGPSVFPLAPSSKSTSGGTAALGCLVKDYFPEPVTVSWNSGALTSGVHTFPAVLQSSGLYSLSSVVTVPSSSLGTQTYICNVNHKPSNTKVDKKVEPKSC
3 | – | – | – | – | – | – | 2.93 | 0.000163 | 58400 | 4.16 | 0.000368 | 88600 | 2.66 | 0.000189 | 71000 | A26 Fab-dsFv (645gH5gL4) (bispecific antibody, Anti-OX40 A26 Fab fused to the disulphide-stabilised anti-albumin Fv 645gH5gL4; In the cell assay (2.4) it was labelled with Alexa Fluor 488; also called A26 Fab-Fv; Fab-Fv) heavy: EVQLVESGGGLVQPGGSLRLSCAASGFTFTNYGIHWIRQAPGKGLEWVASISPSGGLTYYRDSVKGRFTISRDDAKNSPYLQMNSLRAEDTAVYYCATGGEGIFDYWGQGTLVTVSSASTKGPSVFPLAPSSKSTSGGTAALGCLVKDYFPEPVTVSWNSGALTSGVHTFPAVLQSSGLYSLSSVVTVPSSSLGTQTYICNVNHKPSNTKVDKKVEPKSCSGGGGSGGGGTGGGGSEVQLLESGGGLVQPGGSLRLSCAVSGIDLSNYAINWVRQAPGKCLEWIGIIWASGTTFYATWAKGRFTISRDNSKNTVYLQMNSLRAEDTAVYYCARTVPGYSTAPYFDLWGQGTLVTVSS light: DIQMTQSPSSLSASVGDRVTITCRATQSIYNALAWYQQKPGKAPKLLIYNANTLHTGVPSRFSASGSGTDSTLTISSLQPEDFATYYCQQYYDYPLTFGGGTKVEIKRTVAAPSVFIFPPSDEQLKSGTASVVCLLNNFYPREAKVQWKVDNALQSGNSQESVTEQDSKDSTYSLSSTLTLSKADYEKHKVYACEVTHQGLSSPVTKSFNRGECGGGGSGGGGSGGGGSDIQMTQSPSSVSASVGDRVTITCQSSPSVWSNFLSWYQQKPGKAPKLLIYEASKLTSGVPSRFSGSGSGTDFTLTISSLQPEDFATYYCGGGYSSISDTTFGCGTKVEIKRT
